Results published in the supplement of paper PMC9112550, “Optimization of the antimicrobial peptide Bac7 by deep mutational scanning” (BMC Biology, 2022).

Test system: Escherichia coli TOP10
Assay: shrunken log2 fold change of peptide-encoding DNA abundance (4.5 h post-induction vs induction); higher = less antimicrobial activity (less host growth inhibition)
Settings: time post-induction: 4.5 h; library: site-saturation at positions 5, 18, 19, 20
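Further: peptides expressed intracellularly from a pBAD plasmid library in pooled LB shake-flask culture, induced with 0.3% L-arabinose, DNA abundance read by NGS, three biological replicates, DESeq2 with apeglm shrinkage.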

Row | Sequence | shrunken log2 fold change
1 | RRIRIRPPRLPRPRPRPWMLPRP | -0.13
2 | RRIRARPPRLPRPRPRPTFHPRP | 0.177
3 | RRIRTRPPRLPRPRPRPELEPRP | 0.0188
4 | RRIRARPPRLPRPRPRPRDKPRP | 0.442
5 | RRIRDRPPRLPRPRPRPMAGPRP | 0.00396
6 | RRIRKRPPRLPRPRPRPRKGPRP | -0.0408
7 | RRIRCRPPRLPRPRPRPRKWPRP | -0.0179
8 | RRIRIRPPRLPRPRPRPKDNPRP | -0.606
9 | RRIRKRPPRLPRPRPRPMKLPRP | 0.0347
10 | RRIRDRPPRLPRPRPRPWSDPRP | -0.0204
11 | RRIRSRPPRLPRPRPRPKLTPRP | -0.06
12 | RRIRFRPPRLPRPRPRPNKTPRP | -0.172
13 | RRIRYRPPRLPRPRPRPPEYPRP | 0.0412
14 | RRIRLRPPRLPRPRPRPVIMPRP | -0.0794
15 | RRIRWRPPRLPRPRPRPVANPRP | 0.0636
16 | RRIRHRPPRLPRPRPRPMGYPRP | -0.134
17 | RRIRARPPRLPRPRPRPWYEPRP | -0.0297
18 | RRIRTRPPRLPRPRPRPQLDPRP | -0.0457
19 | RRIRWRPPRLPRPRPRPGIEPRP | 0.281
20 | RRIRKRPPRLPRPRPRPRSMPRP | -0.164
21 | RRIRLRPPRLPRPRPRPMVTPRP | 0.0098
22 | RRIRQRPPRLPRPRPRPCDFPRP | 0.0344
23 | RRIRWRPPRLPRPRPRPCAFPRP | 0.176
24 | RRIRPRPPRLPRPRPRPCCPPRP | -0.377
25 | RRIRNRPPRLPRPRPRPRHLPRP | -0.337

Row | Sequence | shrunken log2 fold change
26 | RRIRHRPPRLPRPRPRPPFMPRP | 0.0707
27 | RRIRFRPPRLPRPRPRPYDEPRP | -0.526
28 | RRIRKRPPRLPRPRPRPKWCPRP | 0.152
29 | RRIRNRPPRLPRPRPRPVKAPRP | -0.0518
30 | RRIRMRPPRLPRPRPRPTEMPRP | 0.14
31 | RRIRARPPRLPRPRPRPPAYPRP | 0.3
32 | RRIRQRPPRLPRPRPRPAHTPRP | 0.379
33 | RRIRPRPPRLPRPRPRPMHYPRP | -0.336
34 | RRIRQRPPRLPRPRPRPAPPPRP | 0.702
35 | RRIRWRPPRLPRPRPRPIQSPRP | 0.245
36 | RRIRRRPPRLPRPRPRPEAQPRP | 0.253
37 | RRIRNRPPRLPRPRPRPKMCPRP | -0.0269
38 | RRIRGRPPRLPRPRPRPYCGPRP | -0.349
39 | RRIRMRPPRLPRPRPRPMDQPRP | -0.0516
40 | RRIRWRPPRLPRPRPRPMLNPRP | -0.00515
41 | RRIRERPPRLPRPRPRPPPHPRP | 0.619
42 | RRIRTRPPRLPRPRPRPQNYPRP | -0.311
43 | RRIRARPPRLPRPRPRPWIGPRP | 0.15
44 | RRIRIRPPRLPRPRPRPLWCPRP | -0.067
45 | RRIRKRPPRLPRPRPRPEGMPRP | 0.194
46 | RRIRYRPPRLPRPRPRPHNVPRP | -0.14
47 | RRIRHRPPRLPRPRPRPVPVPRP | 0.0601
48 | RRIRYRPPRLPRPRPRPFCHPRP | -0.239
49 | RRIRPRPPRLPRPRPRPHNSPRP | -0.454
50 | RRIRYRPPRLPRPRPRPPNLPRP | -0.248

Row | Sequence | shrunken log2 fold change
51 | RRIRCRPPRLPRPRPRPKYPPRP | -0.196
52 | RRIRYRPPRLPRPRPRPRPSPRP | 0.0768
53 | RRIRSRPPRLPRPRPRPDSEPRP | 0.139
54 | RRIRKRPPRLPRPRPRPKLQPRP | 0.423
55 | RRIRVRPPRLPRPRPRPFCIPRP | -0.447
56 | RRIRIRPPRLPRPRPRPHVGPRP | -0.0138
57 | RRIRIRPPRLPRPRPRPWTTPRP | -0.102
58 | RRIRTRPPRLPRPRPRPCTKPRP | 0.0197
59 | RRIRSRPPRLPRPRPRPISMPRP | -0.145
60 | RRIRQRPPRLPRPRPRPNGDPRP | 0.0171
61 | RRIRMRPPRLPRPRPRPEGCPRP | 3.93
62 | RRIRRRPPRLPRPRPRPRSLPRP | -0.0226
63 | RRIRIRPPRLPRPRPRPCNSPRP | -0.271
64 | RRIRGRPPRLPRPRPRPNTIPRP | -0.184
65 | RRIRDRPPRLPRPRPRPMHLPRP | -0.339
66 | RRIRVRPPRLPRPRPRPHDIPRP | 0.0663
67 | RRIRDRPPRLPRPRPRPGNRPRP | -0.0278
68 | RRIRIRPPRLPRPRPRPGCKPRP | -0.0374
69 | RRIRHRPPRLPRPRPRPRPHPRP | 0.365
70 | RRIRCRPPRLPRPRPRPFMHPRP | -1.01
71 | RRIRNRPPRLPRPRPRPLHVPRP | 0.251
72 | RRIRKRPPRLPRPRPRPPRTPRP | 0.829
73 | RRIRPRPPRLPRPRPRPTNSPRP | -0.195
74 | RRIRYRPPRLPRPRPRPTPYPRP | -0.847
75 | RRIRMRPPRLPRPRPRPKWKPRP | 0.195

Row | Sequence | shrunken log2 fold change
76 | RRIRRRPPRLPRPRPRPTPAPRP | 1.55
77 | RRIRVRPPRLPRPRPRPFQDPRP | -0.0723
78 | RRIRIRPPRLPRPRPRPVDWPRP | -0.0226
79 | RRIRRRPPRLPRPRPRPTWEPRP | 0.0289
80 | RRIRARPPRLPRPRPRPCINPRP | -0.353
81 | RRIRTRPPRLPRPRPRPAMIPRP | -0.0108
82 | RRIRCRPPRLPRPRPRPDVEPRP | -0.421
83 | RRIRPRPPRLPRPRPRPYYHPRP | -0.794
84 | RRIRMRPPRLPRPRPRPFCDPRP | 0.179
85 | RRIRYRPPRLPRPRPRPQDLPRP | 0.0284
86 | RRIRKRPPRLPRPRPRPWTSPRP | -0.113
87 | RRIRKRPPRLPRPRPRPSDNPRP | 0.0936
88 | RRIRQRPPRLPRPRPRPDWSPRP | -0.0861
89 | RRIRKRPPRLPRPRPRPRISPRP | -0.258
90 | RRIRYRPPRLPRPRPRPGVQPRP | 0.0651
91 | RRIRPRPPRLPRPRPRPGVQPRP | 0.336
92 | RRIRHRPPRLPRPRPRPFQHPRP | -0.0182
93 | RRIRTRPPRLPRPRPRPPWEPRP | 0.506
94 | RRIRPRPPRLPRPRPRPGYFPRP | -0.0323
95 | RRIRMRPPRLPRPRPRPGMQPRP | -0.00144
96 | RRIRSRPPRLPRPRPRPPGQPRP | 0.4
97 | RRIRRRPPRLPRPRPRPSPYPRP | 0.0987
98 | RRIRSRPPRLPRPRPRPHWLPRP | -0.614
99 | RRIRQRPPRLPRPRPRPFINPRP | -0.241
100 | RRIRGRPPRLPRPRPRPCCIPRP | 0.214

Row | Sequence | shrunken log2 fold change
101 | RRIRIRPPRLPRPRPRPCSTPRP | -0.484
102 | RRIRDRPPRLPRPRPRPNLKPRP | 0.114
103 | RRIRQRPPRLPRPRPRPTFIPRP | -0.0494
104 | RRIRYRPPRLPRPRPRPHQAPRP | -0.0296
105 | RRIRNRPPRLPRPRPRPLILPRP | -0.303
106 | RRIRARPPRLPRPRPRPMNYPRP | -0.182
107 | RRIRFRPPRLPRPRPRPQKMPRP | -0.221
108 | RRIRYRPPRLPRPRPRPHSHPRP | -0.311
109 | RRIRSRPPRLPRPRPRPMIFPRP | -0.325
110 | RRIRCRPPRLPRPRPRPSTKPRP | -0.277
111 | RRIRARPPRLPRPRPRPKCEPRP | 0.367
112 | RRIRCRPPRLPRPRPRPNLWPRP | 0.00489
113 | RRIRYRPPRLPRPRPRPKFMPRP | -0.633
114 | RRIRIRPPRLPRPRPRPVHGPRP | -0.0643
115 | RRIRNRPPRLPRPRPRPKHAPRP | 0.0877
116 | RRIRIRPPRLPRPRPRPNSMPRP | -1.23
117 | RRIRVRPPRLPRPRPRPMREPRP | 0.689
118 | RRIRKRPPRLPRPRPRPECSPRP | 0.854
119 | RRIRVRPPRLPRPRPRPNMHPRP | -0.332
120 | RRIRHRPPRLPRPRPRPTRVPRP | 0.211
121 | RRIRTRPPRLPRPRPRPAGQPRP | -0.109
122 | RRIRFRPPRLPRPRPRPLAQPRP | 0.097
123 | RRIRTRPPRLPRPRPRPRKEPRP | 0.102
124 | RRIRLRPPRLPRPRPRPICHPRP | -0.368
125 | RRIRFRPPRLPRPRPRPFDDPRP | -0.488

Row | Sequence | shrunken log2 fold change
126 | RRIRIRPPRLPRPRPRPTLMPRP | -0.0204
127 | RRIRVRPPRLPRPRPRPRTSPRP | 0.0612
128 | RRIRERPPRLPRPRPRPRGSPRP | 0.147
129 | RRIRPRPPRLPRPRPRPEINPRP | -0.264
130 | RRIRGRPPRLPRPRPRPLKVPRP | 0.271
131 | RRIRARPPRLPRPRPRPRSLPRP | 0.0678
132 | RRIRARPPRLPRPRPRPPSRPRP | 0.691
133 | RRIRARPPRLPRPRPRPPADPRP | 1.42
134 | RRIRQRPPRLPRPRPRPYHQPRP | -0.631
135 | RRIRCRPPRLPRPRPRPCGMPRP | 0.119
136 | RRIRTRPPRLPRPRPRPATIPRP | -0.0446
137 | RRIRRRPPRLPRPRPRPAPDPRP | 1.65
138 | RRIRCRPPRLPRPRPRPKGLPRP | -0.134
139 | RRIRDRPPRLPRPRPRPAVYPRP | -0.097
140 | RRIRERPPRLPRPRPRPVCCPRP | -0.163
141 | RRIRYRPPRLPRPRPRPITFPRP | -0.864
142 | RRIRVRPPRLPRPRPRPNNLPRP | -0.534
143 | RRIRKRPPRLPRPRPRPPPDPRP | 0.906
144 | RRIRMRPPRLPRPRPRPDVLPRP | -0.123
145 | RRIRRRPPRLPRPRPRPQQAPRP | 0.115
146 | RRIRVRPPRLPRPRPRPNEEPRP | -0.00544
147 | RRIRDRPPRLPRPRPRPRMPPRP | 0.156
148 | RRIRKRPPRLPRPRPRPDHMPRP | 0.0864
149 | RRIRVRPPRLPRPRPRPNKDPRP | -0.448
150 | RRIRERPPRLPRPRPRPFFRPRP | -0.112
